Measurements as given in US20140072613A1 (published 2014).

Assays:
Assay in all cases: cell-based or functional assay
MSK1(h) = MSK1(h) (human, UniProt O75582 1-802)
BrSK1(h) = target: T1, BrSK1(h) (human, UniProt Q8TDC3 1-778, limits assumed)
T1 sequence (looked up): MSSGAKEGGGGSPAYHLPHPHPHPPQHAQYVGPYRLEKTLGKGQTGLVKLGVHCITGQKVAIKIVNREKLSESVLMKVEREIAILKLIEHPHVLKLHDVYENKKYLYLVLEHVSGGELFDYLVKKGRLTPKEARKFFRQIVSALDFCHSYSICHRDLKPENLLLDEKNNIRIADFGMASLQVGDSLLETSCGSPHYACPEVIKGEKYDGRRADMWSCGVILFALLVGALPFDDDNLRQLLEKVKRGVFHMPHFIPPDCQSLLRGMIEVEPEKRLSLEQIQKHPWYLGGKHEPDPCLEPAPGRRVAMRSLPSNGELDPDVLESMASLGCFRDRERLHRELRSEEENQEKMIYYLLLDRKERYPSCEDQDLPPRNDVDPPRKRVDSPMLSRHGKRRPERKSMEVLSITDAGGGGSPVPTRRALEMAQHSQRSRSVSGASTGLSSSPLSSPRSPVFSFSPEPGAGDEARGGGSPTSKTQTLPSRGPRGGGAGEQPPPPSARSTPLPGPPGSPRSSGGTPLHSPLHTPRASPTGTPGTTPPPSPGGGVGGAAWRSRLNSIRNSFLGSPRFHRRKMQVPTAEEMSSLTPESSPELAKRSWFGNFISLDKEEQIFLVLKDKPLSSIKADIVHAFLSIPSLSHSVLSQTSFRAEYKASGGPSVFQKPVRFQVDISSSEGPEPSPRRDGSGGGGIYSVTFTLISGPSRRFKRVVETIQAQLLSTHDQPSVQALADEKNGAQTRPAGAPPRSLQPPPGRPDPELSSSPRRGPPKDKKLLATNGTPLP

Haspin(h) = target: T2, Haspin(h) (human, UniProt Q8TF76 471-798, limits assumed)
T2 sequence (looked up): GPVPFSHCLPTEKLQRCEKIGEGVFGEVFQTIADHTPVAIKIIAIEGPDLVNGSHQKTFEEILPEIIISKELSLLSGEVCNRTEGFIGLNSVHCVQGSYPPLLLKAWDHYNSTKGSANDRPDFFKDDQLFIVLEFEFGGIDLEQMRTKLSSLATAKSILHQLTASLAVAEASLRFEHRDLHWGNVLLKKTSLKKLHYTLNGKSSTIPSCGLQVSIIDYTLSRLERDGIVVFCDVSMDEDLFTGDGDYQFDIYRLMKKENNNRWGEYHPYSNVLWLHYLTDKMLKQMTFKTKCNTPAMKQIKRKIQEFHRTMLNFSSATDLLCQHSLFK

MEK1(h) = MEK1(h) (human, UniProt Q02750 1-393)
SAPK4(h) = target: T3, SAPK4(h) (human, UniProt O15264 1-365)
T3 sequence (looked up): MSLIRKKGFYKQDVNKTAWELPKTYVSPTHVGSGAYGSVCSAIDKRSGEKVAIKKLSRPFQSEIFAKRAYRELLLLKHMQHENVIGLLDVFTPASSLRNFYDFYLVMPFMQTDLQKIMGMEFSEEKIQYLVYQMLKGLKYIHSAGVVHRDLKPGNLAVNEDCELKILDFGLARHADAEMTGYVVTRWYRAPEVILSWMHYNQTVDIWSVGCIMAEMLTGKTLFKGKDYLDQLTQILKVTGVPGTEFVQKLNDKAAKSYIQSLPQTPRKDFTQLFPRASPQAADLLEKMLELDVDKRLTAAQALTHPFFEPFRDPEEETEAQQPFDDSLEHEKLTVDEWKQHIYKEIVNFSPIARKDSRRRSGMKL

BTK(R28H)(h) = BTK(R28H)(h) (human, UniProt Q06187 1-659)
TAO2(h) = target: T4, TAO2(h) (human, UniProt Q9UL54 1-314, limits assumed)
T4 sequence (looked up): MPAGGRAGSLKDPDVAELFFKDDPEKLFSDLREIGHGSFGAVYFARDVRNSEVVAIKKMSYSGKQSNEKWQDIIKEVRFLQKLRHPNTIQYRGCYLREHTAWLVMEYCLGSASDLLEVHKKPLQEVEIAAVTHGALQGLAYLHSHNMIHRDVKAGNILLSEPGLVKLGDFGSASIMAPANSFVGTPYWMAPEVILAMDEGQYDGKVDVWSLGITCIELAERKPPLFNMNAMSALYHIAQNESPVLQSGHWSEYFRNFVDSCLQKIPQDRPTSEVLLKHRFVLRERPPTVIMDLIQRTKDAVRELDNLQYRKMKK

PDGFRα(h) = PDGFRα(h) (human, UniProt P16234 550-1089, limits assumed)
EGFR(T790M)(h) = EGFR(T790M)(h) (human, UniProt P00533 696-1210, limits assumed)
LOK(h) = LOK(h) (human, UniProt O94804 1-348, limits assumed)
ZIPK(h) = ZIPK(h) (human, UniProt O43293 1-454, limits assumed)
MKK6(h) = target: T5, MKK6(h) (human, UniProt P52564 1-334)
T5 sequence (looked up): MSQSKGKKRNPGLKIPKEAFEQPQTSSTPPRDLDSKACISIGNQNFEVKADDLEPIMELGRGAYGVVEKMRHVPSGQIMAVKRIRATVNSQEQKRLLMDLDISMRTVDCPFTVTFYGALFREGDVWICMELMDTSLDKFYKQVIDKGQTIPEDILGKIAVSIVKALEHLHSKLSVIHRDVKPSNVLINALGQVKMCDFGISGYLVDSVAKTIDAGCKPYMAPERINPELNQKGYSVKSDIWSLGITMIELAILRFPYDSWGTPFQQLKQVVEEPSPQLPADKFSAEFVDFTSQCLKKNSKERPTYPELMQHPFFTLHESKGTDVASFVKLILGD

PKCθ(h) = PKCθ(h) (human, UniProt Q04759 1-706)

Binder | % activity, 100 µM (MSK1(h)) | % activity, 100 µM (BrSK1(h)) | % activity, 100 µM (Haspin(h)) | % activity, 100 µM (MEK1(h)) | % activity, 100 µM (SAPK4(h)) | % activity, 100 µM (BTK(R28H)(h)) | % activity, 100 µM (TAO2(h)) | % activity, 100 µM (PDGFRα(h)) | % activity, 100 µM (EGFR(T790M)(h)) | % activity, 100 µM (LOK(h)) | % activity, 100 µM (ZIPK(h)) | % activity, 100 µM (MKK6(h)) | % activity, 100 µM (PKCθ(h))
FAKLAARLYRKALARQLGVAA [MMI-0300] | 32% | 67% | 48% | 77% | 96% | 74% | 70% | 65% | 100% | 37% | 28% | 48% | 88%
KAFAKLAARLYRKALARQLGVAA [MMI-0400] | 28% | 76% | 36% | 77% | 91% | 24% | 74% | 40% | 106% | 18% | 13% | 44% | 76%
